Article PMC5173032, “A plasma proteolysis pathway comprising blood coagulation proteases” (Oncotarget, 2016)

T1: 20I-50Pdel-FXII (human, UniProt P00748 20-615, 20I-50Pdel)
T1 construct: signal peptide in the construct; source: CHO-K1, transfected (pCMV6-XL5), purified from cell lysate (Ni-NTA agarose); not shown: His6, C-terminal, kept
T1 sequence (looked up): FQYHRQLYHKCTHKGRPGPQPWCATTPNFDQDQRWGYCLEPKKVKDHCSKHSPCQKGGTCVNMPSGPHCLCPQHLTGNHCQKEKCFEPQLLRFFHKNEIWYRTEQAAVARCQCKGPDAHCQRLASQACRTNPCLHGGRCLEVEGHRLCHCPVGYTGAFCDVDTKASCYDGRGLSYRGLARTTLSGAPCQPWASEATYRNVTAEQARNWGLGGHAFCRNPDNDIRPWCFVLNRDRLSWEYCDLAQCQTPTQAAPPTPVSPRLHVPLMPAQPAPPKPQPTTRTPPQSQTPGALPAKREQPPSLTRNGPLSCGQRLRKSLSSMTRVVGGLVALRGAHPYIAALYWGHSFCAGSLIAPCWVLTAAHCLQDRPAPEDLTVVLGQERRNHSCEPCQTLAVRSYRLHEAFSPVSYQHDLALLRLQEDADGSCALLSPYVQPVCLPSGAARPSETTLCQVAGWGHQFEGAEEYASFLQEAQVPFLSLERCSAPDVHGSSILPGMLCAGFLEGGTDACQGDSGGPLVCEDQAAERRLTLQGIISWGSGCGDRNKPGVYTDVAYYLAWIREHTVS

T2: 153T-172Rdel-FXII (human, UniProt P00748 20-615, 153T-172Rdel)
T2 construct: signal peptide in the construct; source: CHO-K1, transfected (pCMV6-XL5), purified from cell lysate (Ni-NTA agarose); not shown: His6, C-terminal, kept
T2 sequence (looked up): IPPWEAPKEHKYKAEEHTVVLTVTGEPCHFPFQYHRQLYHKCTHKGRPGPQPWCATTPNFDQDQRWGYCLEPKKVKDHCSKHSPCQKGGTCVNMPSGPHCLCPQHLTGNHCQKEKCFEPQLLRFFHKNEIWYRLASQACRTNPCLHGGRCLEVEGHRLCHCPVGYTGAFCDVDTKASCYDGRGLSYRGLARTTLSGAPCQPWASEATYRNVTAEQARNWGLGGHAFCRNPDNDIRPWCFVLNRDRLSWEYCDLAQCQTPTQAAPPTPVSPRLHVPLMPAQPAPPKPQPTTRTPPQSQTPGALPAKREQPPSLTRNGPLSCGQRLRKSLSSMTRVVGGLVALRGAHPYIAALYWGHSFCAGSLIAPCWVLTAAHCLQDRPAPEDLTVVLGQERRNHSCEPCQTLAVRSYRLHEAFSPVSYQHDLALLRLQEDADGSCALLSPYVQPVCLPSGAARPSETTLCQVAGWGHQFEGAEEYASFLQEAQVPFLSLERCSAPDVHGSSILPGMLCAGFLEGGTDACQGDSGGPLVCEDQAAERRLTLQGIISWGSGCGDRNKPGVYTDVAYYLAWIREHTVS

B1: recombinant human prolidase (peptidase D, PEPD) (enzyme, UniProt P12955 1-493, looked up)
chain: MAAATGPSFWLGNETLKVPLALFALNRQRLCERLRKNPAVQAGSIVVLQGGEETQRYCTDTGVLFRQESFFHWAFGVTEPGCYGVIDVDTGKSTLFVPRLPASHATWMGKIHSKEHFKEKYAVDDVQYVDEIASVLTSQKPSVLLTLRGVNTDSGSVCREASFDGISKFEVNNTILHPEIVECRVFKTDMELEVLRYTNKISSEAHREVMKAVKVGMKEYELESLFEHYCYSRGGMRHSSYTCICGSGENSAVLHYGHAGAPNDRTIQNGDMCLFDMGGEYYCFASDITCSFPANGKFTADQKAVYEAVLRSSRAVMGAMKPGVWWPDMHRLADRIHLEELAHMGILSGSVDAMVQAHLGAVFMPHGLGHFLGIDVHDVGGYPEGVERIDEPGLRSLRTARHLQPGMVLTVEPGIYFIDHLLDEALADPARASFLNREVLQRFRGFGGVRIEEDVVVTDSGIELLTCVPRTVEEIEACMAGCDKAFTPFSGPK
notes: human prolidase (peptidase D); also called hPEPD; source: recombinant, generated, purified and characterized as recently reported [7, 11]; not shown: His6, C-terminal, kept
B2: recombinant human FXII with 6XHis C-terminal tag (natural protein, UniProt P00748 20-615, looked up)
chain: IPPWEAPKEHKYKAEEHTVVLTVTGEPCHFPFQYHRQLYHKCTHKGRPGPQPWCATTPNFDQDQRWGYCLEPKKVKDHCSKHSPCQKGGTCVNMPSGPHCLCPQHLTGNHCQKEKCFEPQLLRFFHKNEIWYRTEQAAVARCQCKGPDAHCQRLASQACRTNPCLHGGRCLEVEGHRLCHCPVGYTGAFCDVDTKASCYDGRGLSYRGLARTTLSGAPCQPWASEATYRNVTAEQARNWGLGGHAFCRNPDNDIRPWCFVLNRDRLSWEYCDLAQCQTPTQAAPPTPVSPRLHVPLMPAQPAPPKPQPTTRTPPQSQTPGALPAKREQPPSLTRNGPLSCGQRLRKSLSSMTRVVGGLVALRGAHPYIAALYWGHSFCAGSLIAPCWVLTAAHCLQDRPAPEDLTVVLGQERRNHSCEPCQTLAVRSYRLHEAFSPVSYQHDLALLRLQEDADGSCALLSPYVQPVCLPSGAARPSETTLCQVAGWGHQFEGAEEYASFLQEAQVPFLSLERCSAPDVHGSSILPGMLCAGFLEGGTDACQGDSGGPLVCEDQAAERRLTLQGIISWGSGCGDRNKPGVYTDVAYYLAWIREHTVS
notes: signal peptide in the construct; also called factor XII; source: CHO-K1, transfected (pCMV6-XL5), purified from cell lysate (Ni-NTA agarose); not shown: His6, C-terminal, kept

Tests used:
Settings in all cases: both partners purified
[1] = target: B2; assay: co-IP; purified proteins: hPEPD, an hPEPD mutant or mSRC at 40 nM incubated with a coagulation factor, FXII or an FXII mutant at 0.5 μM in PBS, 100 μl, 2 h at 37°C; then a specific primary antibody at 4°C overnight, IP by protein G-agarose, IB
[2] = target: T1, 20I-50Pdel-FXII; assay: as above
[3] = target: T2, 153T-172Rdel-FXII; assay: as above
[4] = target: T3, human amyloid β1-42 (human, UniProt P05067 672-713); assay: co-sedimentation; hAβ1-42 (200 nM) incubated with FXII or a mutant (20 nM) in PBS, 100 μl, 2 h at RT; Aβ1-42 aggregated; low-speed centrifugation; precipitates re-dissolved in 2% SDS and analysed with the supernatants by IB
T3 construct: amyloid β1-42, the peptide cut by secretases from the human Aβ precursor protein; numbers count on: the peptide; also called hAβ1-42; Aβ1-42; source: bought: Sigma-Aldrich (A9810)

Row | binding result [1] | binding result [2] | binding result [3] | binding result [4] | Binder
1 | binds | binds | binds | – | B1
2 | – | – | – | binds | B2
